In patent US10100120B2, “Antibody which specifically binds to human CRTH2” (KYOWA HAKKO KIRIN CO., LTD, priority 2015, dated 2018):

Key:
[1] = tested on: Th2 cells; test: Cytotoxic activity against Th2 cells: cytokine production of PBMC after antibody treatment; format: cell-based, human; settings: antibody 10 μg/mL 20 hours, then anti-CD3/anti-CD28 stimulation 3 days
Description: The mononuclear cell layer prepared in the same manner as in Example 13 was washed twice with RPMI-1640 (Wako Pure Chemical Industries) to which 1/10 volume FBS (GIBCO Inc.), 200 mM-L-Glutamine Stock Solution (NACALAI TESQUE, Inc.), 10 mM MEM Non-Essential Amino Acids Solution (GIBCO Inc.), 100 mM Sodium Pyruvate (GIBCO Inc.), 1 M HEPES Buffer Solution (GIBCO Inc.), and 1/100 volume Penicillin-Streptomycin, Liquid (GIBCO Inc.) were added [hereinafter, referred to as peripheral blood mononuclear cell (PBMC) culture medium], thereby preparing a 1×10^7 cells/mL cell suspension.
The prepared cell suspension was seeded in a 96-well plate at 100 μL/well, chLym2 antibody, the humanized anti-human CRTH2 antibody LV0HV1 or the isotype control antibody described in Example 8 was added thereto at a final concentration of 10 μg/mL to cause a reaction in a 5% CO2 incubator at 37° C. for 20 hours.
The cells after the reaction were washed 7 times with a PBMC culture medium to remove the test antibodies thoroughly. Thereafter, the cells were suspended with 100 μL of PBMC culture medium and seeded in a plate in which anti-CD3 antibody OKT3 (Abeam plc.) was immobilized at a concentration of 1 μg/mL. Next, an anti-CD28 antibody (BD Biosciences) prepared to have a concentration of 2 μg/mL was added thereto at 100 μL/well to cause a reaction in a 5% CO2 incubator at 37° C. for 3 days.
The supernatant after the reaction was recovered, and cytokine in the supernatant was quantified using Human IFN-γ Flex Set (BD Biosciences), Human IL-5 Flex Set (BD Biosciences), and Human IL-13 Flex Set (BD Biosciences) according to the attached instructions.

[2] = biological target: T1, mutated human CRTH2 with amino acid substitution (Homo sapiens, UniProt Q9Y5Y4, R195A); test: Epitope analysis using CHO-S cells which express mutated human CRTH2 with amino acid substitution; format: binding; settings: mutant R195A; antibody 10 μg/mL; relative to wild-type = 100%
T1 construct: inserting genes encoding various mutants with amino acid substitution obtained by deleting termination codons; expressed in transfected cells; host or cells: CHO-S cells (Lifetechnologies), transient (phmAG1-MNLinker vector)
T1 sequence (Q9Y5Y4 1-395 R195A): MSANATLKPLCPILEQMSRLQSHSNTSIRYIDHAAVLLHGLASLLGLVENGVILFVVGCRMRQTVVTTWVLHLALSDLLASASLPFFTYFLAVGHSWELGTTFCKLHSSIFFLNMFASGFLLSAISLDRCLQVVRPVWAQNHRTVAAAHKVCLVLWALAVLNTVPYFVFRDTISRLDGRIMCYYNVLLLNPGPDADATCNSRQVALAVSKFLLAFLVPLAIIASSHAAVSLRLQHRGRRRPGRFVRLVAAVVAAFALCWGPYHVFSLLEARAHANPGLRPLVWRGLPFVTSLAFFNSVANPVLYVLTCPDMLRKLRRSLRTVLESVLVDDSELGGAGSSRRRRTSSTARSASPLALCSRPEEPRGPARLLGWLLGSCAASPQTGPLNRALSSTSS
Description: A mutant with amino acid substitution expression vector obtained by partially substituting amino acid residues in an extracellular region with other amino acid residues among the amino acid sequences of human CRTH2 was prepared. Specifically, mutant with amino acid substitution expression vectors obtained by substitution of S2A; N4A; T6A and L7A; K8A, P9A, and L10A; P12A, L14A, and EISA; Q16E, R19H, and Q21R; H23A, S24A, and N25A; T26A, S27A, and I28A; D171A, T172A, and I173A; S174A, R175A, and L176A; D177A, G178A, and R179A; 1180A and M181A; Y183A, Y184A, and N185A; L187A, L188A, and L189A; N190A; P191A; G192A; P193A; D194A; R195A; D196A, and T198A; N275A, G277A, and L278A; P276A; P279A and L281A; P280A; or V282A, R283A, and R284A in the amino acid sequences represented by SEQ ID NO: 2 were respectively prepared. It should be noted that the above symbols in the amino acid substitution indicate [single letter code of an amino acid residue before substitution] [substitution position counting from the N terminal] [single letter code of the amino acid reside after substitution].
Azami-Green tag was added to the intercellular C terminal region by inserting genes encoding various mutants with amino acid substitution obtained by deleting termination codons to the restriction enzyme sites of BamHI and HindIII using phmAG1-MNLinker (MBL) as expression vectors.
The above-described vectors expressing mutants with amino acid substitution were prepared using 1) a method of entirely synthesizing gene sequences encoding mutants with amino acid substitution and inserting the gene sequences into a vector or 2) a method of performing site-specific mutation from a vector into which DNA which encodes the amino acid sequences of wild-type human CRTH2 represented by SEQ ID NO: 1 was inserted.
CHO-S cells (Lifetechnologies) were used for preparing mutated human CRTH2 with amino acid substitution expressing cell lines. Free style CHO expression medium (Invitrogen) containing 8 mM L-Glutamine (Invitrogen) was used for subculturing cells and the cells were cultured by shaking under the conditions of 37° C. in the presence of 5% CO2.
25 μg of the mutated human CRTH2 with amino acid substitution expression vector prepared in (1) described above was dissolved in 400 μL of Opti-Pro SFM (Invitrogen) and 25 μL of a Freestyle MAX Reagent (Invitrogen) was dissolved in 400 μL of Opti-Pro SFM and each of them were allowed to stand at room temperature for 5 minutes. The two liquids were mixed with each other and allowed to stand at room temperature for 15 minutes. The mixed solution was added to the CHO-S culture solution and the cells were cultured for 24 hours, thereby obtaining cell lines which express mutated human CRTH2 with amino acid substitution.
The CHO-S cells which express mutated human CRTH2 with amino acid substitution established in (2) were washed with SM, seeded in a 96-well plate such that one well has 2×10^5 cells, and centrifuged at 1700 rpm for 2 minutes. After the supernatant was removed, chLym2, LV0HV1, the anti-human CRTH2 antibody hu19A2 v52, hu8B1 v1, ch3C12, or ch31A5 prepared in Example 9, or a commercially available anti-human CRTH2 antibody BM16 (Santa Cruz) prepared to have a concentration of 10 μg/mL using SM was added thereto to cause a reaction at 4° C. for 1 hour.
After the cells were washed, goat anti-Human IgG Alexa 647 (Molecular Probes) diluted with SM was added to wells to which chLym2, LV0HV1, hu19A2 v52, hu8B1 v1, ch3C12, or ch31A5 was added and goat anti-Rat IgG Alexa 647 (Molecular Probes) diluted with SM was added to wells to which BM16 was added at a final concentration of 10 μg/mL to cause a reaction at 4° C. for 1 hour.
After the reaction, the cells were washed and suspended with SM, and the fluorescent intensity was analyzed by flow cytometry (BD Biosciences, FACS CantoII). […]

B1: LV0HV1: humanized Lym2 antibody, VL LV0 (SEQ ID NO: 33), VH HV1 (SEQ ID NO: 51) (antibody, V domains shown)
VH: EVQLVESGGGVVQPGRSLRLSCAASGFTFSNYYMAWVRQAPGKGLEWVATISYDGSSTYYRDSVKGRFTISRDNAKNSLYLQMNSLRAEDTATYYCARHRGYYYSGAGYFDYWGQGTMVTVSS
VL: DIVMTQTPLSLPVTPGESASISCRSSQSLEYSDGYTYLEWYLQKPGQSPQVLIYGVSNRFSGVPDRFSGSGSGTDFTLKISRVEAEDVGVYYCFQATHDPLTFGQGTKLEIK
production of IL-5 (Th2 cytokine) ([1]; FIG. 12(A)): reduced | production of IL-13 (Th2 cytokine) ([1]; FIG. 12(A)): reduced | production of IFN-γ (Th1 cytokine) ([1]; FIG. 12(B)): not changed | reactivity against cells expressing mutated human CRTH2 [2]: lost
